According to patent US12226490B2, “Anti-ROR1 antibody conjugates, compositions comprising anti ROR1 antibody conjugates, and methods of making and using anti-ROR1 antibody conjugates preliminary class” (Sutro Biopharma, Inc., priority 2022, dated 2025):
Numbering of substitutions follows the chain as printed.

B1: 1987-C05 HC w/hUCHT1 LC3: HC of lead antibody 1987-C05 co-expressed with LC "derived from anti-CD3 antibodies": hUCHT1-LC3 (antibody, V domains shown)
VH: EVQLVESGGGLVQPGGSLRLSCAASGFNISDYDIHWVRQAPGKGLEWVGGIDPDDGSTDYADSVKGRFTISADTSKNTAYLQMNSLRAEDTAVYYCARDYGVFDYWGQGTLVTVSS
VL: DIQMTQSPSTLSASVGDRVTITCRASQDIRNYLNWYQQKPGKAPKLLIYYTSRLHSGVPSRFSGSGSGTEYTLTISSLQPDDFATYYCQQGNTLPWTFGGGTKVEIK
B2: Conjugate 4 (conjugate)
heavy: MEVQLVESGGGLVQPGGSLRLSCAASGFNISDYDIHWVRQAPGKGLEWVGGIDPADGSTDYADSVKGRFTISADTSKNTAYLQMNSLRAEDTAVYYCARDYGVYDYWGQGTLVTVSSASTKGPSVFPLAPSSKSTSGGTAALGCLVKDYFPEPVTVSWNSGALTSGVHTFPAVLQSSGLSLSSVVTVPSSSLGTQTYICNVNHKPSNTKVDKKVEPKSCDKTHTCPPCPAPELLGGPSVFLFPPKPKDTLMISRTPEVTCVVVDVSHEDPEVKFNWYVDGVEVHNAKTKPREEQYNSTYRVVSVLTVLHQDWLNGKEYKCKVSNKALPAPIEKTISKAKGQPREPQVYTLPPSREEMTKNQVSLTCLVKGFYPSDIAVEWESNGQPENNYKTTPPVLDSDGSFLYSKLTVDKSRWQQGNVFSCSVMHEALHNHYTQKSLSLSPGK
light: MDIQMTQSPSSLSASVGDRVTITCRASQDVNTAVAWYQQKPGAPKLLIYSASFLYSGVPSRFSGSRSGTDFTLTISSLQPEDFATYYCQQHYTTPPTFGQGTKVEIKRTVAAPSVFIFPPSDEQLKSGTASVVCLLNNFYPREAKVQWKVDNALQSGNSQSVTEQDSKDSTYSLSSTLTLSKADYEKHKVYACEVTHQGLSSPVTKSFNRGEC
B3: SRP2196-C01 (antibody, V domains shown)
VH: EVQLVESGGGLVQPGGSLRLSCAASGFNIIGYYIHWVRQAPGKGLEWVGSITPLSGATSKADSVKGRFTISADTSKNTAYLQMNSLRAEDTAVYYCARDSRRYIRSWDYWGQGTLVTVSS
VL: QAVVTQESALTTSPGETVTLTCRSSTGAVTTSNYANWVQEKPDHLFTGLIGGTNKRAPGVPARFSGSLIGDKAALTITGAQTEDEAIYFCALWYSNLWVFGGGTKLTVL
B4: SRP2196-C03 (antibody, V domains shown)
VH: B3 VH with I30T, S50Q, T52S, L54N, A57S, S59Y, K60S, N84S, I104V, R105L
VL: B3 VL
B5: SRP2196-C04 (antibody, V domains shown)
VH: B3 VH with I30T, S50F, T52A, A57S, S59H, K60N, D99E, I104V, R105N, S106P
VL: B3 VL
B6: SRP2196-C02 (antibody, V domains shown)
VH: EVQLVESGGGLVQPGGSLRLSCAASGFNITGYHIHWVRQAPGKGLEWVGFISPNSGWTYSADSVKGRFTISADTSKNTAYLQMNSLRAEDTAVYYCARDSRRYVRPFDYWGQGTLVTVSS
VL: B3 VL

Experiments:
ROR1 negative MCF7 cells = experiment: In vitro cell killing of ROR1 ADCs, ROR1 negative cells (Cell Titer-Glo, 120 hours); format: cell-based, human; details: Table 13
From the text: (§1) Ntera-2, MDA-MB-231, MCF7, HCT116 and Mino cells were obtained from ATCC. HCT116-hRor1-D02 clone was generated by transfecting HCT116 cells with a plasmid containing human Ror1 cDNA sequence and selected for highest stable expression of hRor1 on the cell surface. MDA-MB-231, MCF7, HCT116 and HCT116-Ror1 cell were maintained in Ham's F-12 high glucose DMEM (50-50) (Cellgro-Mediatech; Manassas, VA) supplemented with 10% heat-inactivated fetal bovine serum (Hyclone; Thermo Scientific; Waltham, MA), 1% Penicillin/Streptomycin (Cellgro-Mediatech; Manassas, VA) and 2 mmol/L-glutamax (Life Technology; Carlsbad, CA). Mino cells were maintained in RPMI-1640 medium (Cellgro-Mediatech; Manassas, VA) supplemented with 20% heat-inactivated fetal bovine serum (Hyclone; Thermo Scientific; Waltham, MA), 1% Penicillin/Streptomycin (Cellgro-Mediatech; Manassas, VA) and 2 mmol/L-glutamax (Life Technology; Carlsbad, CA).
(§2) Anti-ROR1 antibody was conjugated to different linker-warheads described herein at different DARs and the cell killing activity of the ADCs were evaluated on ROR1 positive Ntera-2 cell and ROR1 negative MCF7 cells.
(§3) Ntera-2 or MCF7 cell at 625 cells/25 μL were seeded in a 384-well flat bottom white polystyrene plate one day before the assay start. ADCs were formulated at 2× starting concentration. Filter sterilized samples were serial diluted (1:3) under sterile conditions and added onto cells in triplicates. Plates were cultured at 37° C. in a CO2 incubator for 120 hours. […] Relative luminescence was measured on an ENVISION® plate reader (Perkin-Elmer; Waltham, MA). Relative luminescence readings were converted to % viability using untreated cells as controls. […]
(§4) To evaluate if the cell killing activity of anti-ROR1 ADCs is dependent on antibody binding to ROR1 expressed on cell surface, the same linker-warheads (LP3, LP4) were conjugated to an anti-GFP antibody and the cell killing of the anti-ROR1 and anti-GFP ADCs were evaluated in cell killing assays on ROR1 positive Ntera-2 cell and ROR1 negative MCF7 cells.

[1] = tested on: ROR1 positive Ntera-2 cell; experiment: In vitro cell killing of ROR1 ADCs, ROR1 positive cells (Cell Titer-Glo, 120 hours); format: cell-based, human; details: Table 13
From the text: as §1, §2, §3, §4

[2] = biological target: T1, hROR1 (ROR1-extracellular domain) (Homo sapiens, UniProt Q01973); experiment: Biacore off-rate and kinetic analysis, ROR1 extracellular domain; format: binding; details: Sample ROR1 ECD, SPR
T1 construct: the ROR1-extracellular domain (hROR1); purchased Acro Biosystems
Description: Anti-Fc polyclonal antibodies were immobilized onto a CM5 chip (GE Life Sciences) using amine coupling chemistry (from Amine Coupling Kit, GE Life Sciences). The immobilization steps were carried out at a flow rate of 25 μL/min in 1×HBS-EP+ buffer (GE Life Sciences; 10× Stock diluted before use). The sensor surfaces were activated for 7 min with a mixture of NHS (0.05 M) and EDC (0.2 M). The Anti-Fc antibodies were injected over all 4 flow cells at a concentration of 25 ug/ml in 10 mM sodium acetate, pH 4.5, for 7 min. Ethanolamine (1 M, pH 8.5) was injected for 7 min to block any remaining activated groups. […]
(§5) The data was fit with the Biacore T200 Evaluation software, using a 1-1 Langmuir binding model. KD (affinity, nM) was determined as a ratio of the kinetic rate constants calculated from the fits of the association and dissociation phases.
For anti-CD3-LC-containing IgGs that had detectable ROR1-binding in ELISA (1944-A07 and 1987-C05 variants), those antibodies were further tested for binding by surface plasmon resonance (SPR). Binding kinetics were assessed to the ROR1-frizzled domain (hROR1-Fz) or the ROR1-extracellular domain (hROR1) for 1944-A07 and 1987-C05 variants, respectively. […] KD (affinity, nM) was determined as a ratio of the kinetic rate constants calculated from the fits of the association and dissociation phases.

MDA-MB-231 tumor = experiment: MDA-MB-231 TNBC xenograft model; format: in vivo, SCID/beige mice
Description: (§6) The activities of ROR1-targeted ADCs described herein were examined in a MDA-MB-231 TNBC xenograft model. Briefly, SCID/beige mice were implanted subcutaneously with 5×10^6 MDA-MB-231 tumor cells in the mammary fat pad and randomized and enrolled into the study 7 days post implant, with tumor sizes around 130 mm^3. Tumor-bearing mice were administered four weekly doses (qw×4) of the test articles at doses ranging from 2 mg/kg to 5 mg/kg. All treatments were well tolerated with normal body weight gain throughout the course of the study.
as §6, with “SCID/beige” for “The activities of ROR1-targeted ADCs described herein were examined in a MDA-MB-231 TNBC xenograft model. Briefly, SCID/beige”
as §6, with “SCID/beige” for “The activities of ROR1-targeted ADCs described herein were examined in a MDA-MB-231 TNBC xenograft model. Briefly, SCID/beige”, “three” for “four”, “(qw×3)” for “(qw×4)”, “study. […]” for “study.”

human ROR1-Fz = biological target: T2, human ROR1-Fz (Homo sapiens, UniProt Q01973); experiment: Biacore off-rate and kinetic analysis, ROR1 frizzled domain; format: binding; details: Table 11 (SP34 light chain)
T2 construct: Frizzled (Fz, residues 165-305); HIS6 (C); purchased Acro Biosystems; host or cells: HEK293
Description: Anti-Fc polyclonal antibodies were immobilized onto a CM5 chip (GE Life Sciences) using amine coupling chemistry (from Amine Coupling Kit, GE Life Sciences). The immobilization steps were carried out at a flow rate of 25 μL/min in 1×HBS-EP+ buffer (GE Life Sciences; 10× Stock diluted before use). The sensor surfaces were activated for 7 min with a mixture of NHS (0.05 M) and EDC (0.2 M). The Anti-Fc antibodies were injected over all 4 flow cells at a concentration of 25 ug/ml in 10 mM sodium acetate, pH 4.5, for 7 min. Ethanolamine (1 M, pH 8.5) was injected for 7 min to block any remaining activated groups. An average of 12,000 response units (RU) of capture antibody was immobilized on each flow cell.
Off-rate and kinetic binding experiments were performed at 25° C. using 1×HBS-EP+ buffer. Test and control antibodies were injected over the anti-Fc surface at concentrations of 5-10 μg/mL for 12 seconds at a flow rate of 10 μL/min on flow cells 2, 3 and 4, followed by a buffer wash for 30 seconds at the same flow rate. Kinetic characterization of antibody samples was carried out with a range of antigen concentrations from 1-100 nM and 1 injection of 0 nM antigen (for example, 100, 50, 25, 6.25, 1.56 and 0 nM). After capturing ligand (antibody) on the anti-Fc surface, the analyte (hROR1, Fz or Kr domains, Acro Biosystems, Delaware) was bound for 180 seconds, followed by a 600 second dissociation phase at a flow rate of 50 μL/min. Between each ligand capture and analyte binding cycle, regeneration was carried out using 2 injections of 10 mM Glycine pH 2.0 for 30 seconds at 30 μL/min, followed by a 30 second buffer wash step.
as §5
For anti-CD3-LC-containing IgGs that had detectable ROR1-binding in ELISA (1944-A07 and 1987-C05 variants), those antibodies were further tested for binding by surface plasmon resonance (SPR). Binding kinetics were assessed to the ROR1-frizzled domain (hROR1-Fz) or the ROR1-extracellular domain (hROR1) for 1944-A07 and 1987-C05 variants, respectively. Briefly, anti-ROR1 antibodies were captured via anti-human Fc polyclonal antibodies immobilized to a CM5 chip, and ROR1 recombinant proteins were flowed across the surface to assess binding kinetics. hROR1 or hROR1-Fz domain (Acro Biosystems, Delaware) binding was tested at 100, 50, 25, 6.25, 1.5625 nM. The data was fit with the Biacore™ T200 Evaluation software, using a 1-1 Langmuir binding model. KD (affinity, nM) was determined as a ratio of the kinetic rate constants calculated from the fits of the association and dissociation phases.

[3] = Differential scanning fluorimetry (protein thermal shift; TM1 Fc, TM2 Fab); format: physicochemical; details: melting temperature of the Fab domain; Table 11
Description: A protein thermal shift assay was carried out by mixing the protein to be assayed with an environmentally sensitive dye (SYPRO Orange, Life Technologies Cat #S-6650) in a phosphate buffered solution (PBS), and monitoring the fluorescence of the mixture in real time as it underwent controlled thermal denaturation. Protein solutions between 0.2-2 mg/mL were mixed at a 1-1 volumetric ratio with a 1-500 PBS-diluted solution of SYPRO Orange (SYPRO Orange stock dye is 5000× in DMSO). 10 μL aliquots of the protein-dye mixture were dispensed in quadruplicate in a 384-well microplate (Bio-Rad Cat #MSP-3852), and the plate was sealed with an optically clear sealing film (Bio-Rad Cat #MSB-1001) and placed in a 384-well plate real-time thermocycler (Bio-Rad CFX384 Real Time System). The protein-dye mixture was heated from 25° C. to 95° C., at increments of 0.1° C. per cycle (˜1.5° C. per minute), allowing 3 seconds of equilibration at each temperature before taking a fluorescence measurement. At the end of the experiment, the transition melting temperatures (TM1 and TM2) were determined using the Bio-Rad CFX manager software. TM1 represents the melting temperature of the Fc domain. TM2 represents the melting temperature of the Fab domain.
For the thermal stability of an antibody, the first melting peak (Tm1) coincides with the unfolding of the CH2 domain (FC stability), while the second melting peak (Tm2) occurs upon unfolding of the Fab domain.

Molecule	Biacore human ROR1-Fz ka (human ROR1-Fz) [M⁻¹ s⁻¹]	Biacore human ROR1-Fz kd (human ROR1-Fz) [s⁻¹]	TM2 [3] [°C]	other results
COc1cccc2c1C(=O)c1c(O)c3c(c(O)c1C2=O)C[C@@](O)(C(=O)NCCN)C[C@@H]3O[C@H]1C[C@H]2[C@H](O[C@@H]3[C@@H](OC)OCCN32)[C@H](C)O1 [PNU-EDA]	–	–	–	MCF-7 Span (ROR1 negative MCF7 cells): 85%; NTERA-2 Span [1]: 99%
CC[C@@]1(O)C(=O)OCc2c1cc1n(c2=O)Cc2c-1nc1cc(F)c(C)c3c1c2[C@@H](NC(=O)CO)CC3 [Dxd]	–	–	–	MCF-7 Span (ROR1 negative MCF7 cells): 63%; NTERA-2 Span [1]: 99%
B1	–	–	–	kd1 [2]: 0.000645 s⁻¹; ka1 ([2]; 1-1 Langmuir): 566000 M⁻¹ s⁻¹
B2	–	–	–	TGI (MDA-MB-231 tumor; Example 20, day 42, 2 mg/kg qw×4): 36%; TGI (MDA-MB-231 tumor; Example 21, day 43, 5 mg/kg qw×4): 23%
B3	125000	0.000457	70	–
B4	143000	0.000461	69	–
B5	131000	0.000704	70	–
B6	119000	0.00036	67	–
